According to the supplement of paper PMC10126150:
± gives the standard deviation of the averaged measurements.

System: ATP
Test: switch fluorescence ratio, 500 uM ATP over buffer (Cy3 cluster intensity, sum of 5 cycles each) (fold (ratio)); higher = stronger signal-on switching upon ATP binding; sequences stand for … in TCGTCGGCAGCGTCAGATGTGTATAAGAGACAGTTTTTTTTTTTTTTTTTTTTTTTTT…TC
Conditions: aptamer strand: ATP DNA aptamer (quencher-CACCTGGGGGAGTATTGCGGAGGAAGG + anchor), 100 nM annealed; ATP concentration: 500 uM
Procedure, shortened: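 Between each of five buffer/ATP cycles, the flow-cell was stripped with NaOH and re-annealed. Each cycle imaged Cy3-labelled switching-strand clusters, annealed to 100 nM quencher-labelled ATP aptamer on a modified Illumina MiSeq flow-cell, first in selection buffer and then after 15 min with 500 uM ATP at 22 °C. The fluorescence ratio is summed target-cycle over summed buffer-cycle Cy3 intensity per cluster, averaged per switch-domain sequence, with clusters outside 100-1000 RFU excluded.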
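Note: ATP exposure 15 min at 22 °C before imaging.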

Row | Sequence | switch fluorescence ratio
1 | CGACAGGATG | 1.01 ± 0.033
2 | CGACATACGA | 1.56 ± 0.033
3 | CGACGAACGA | 1.54 ± 0.07
4 | CGACGAGGGG | 1 ± 0.03
5 | CGACGATACG | 0.991 ± 0.022
6 | CGACGGATTT | 1.12 ± 0.029
7 | CGACGGCTGG | 1.01 ± 0.07
8 | CGACGGGCGG | 1.02 ± 0.032
9 | CGACGTGGCG | 0.981 ± 0.064
10 | CGACGTTGGT | 1.08 ± 0.043
11 | CGACTAGCGA | 1.4082 ± 0.00063
12 | CGACTGGGAG | 0.981 ± 0.026
13 | CGAGACAGGT | 1.04 ± 0.0098
14 | CGAGACGTAT | 1.09 ± 0.042
15 | CGAGAGACCG | 0.951 ± 0.013
16 | CGAGAGGCGA | 1.05 ± 0.027
17 | CGAGATAAGG | 1 ± 0.014
18 | CGAGATATTG | 0.9827 ± 0.0019
19 | CGAGCACGGG | 1.47 ± 0.053
20 | CGAGCCCTTA | 0.986 ± 0.059
21 | CGAGCTTATC | 1.2 ± 0.056
22 | CGAGCTTCGT | 1.01 ± 0.034
23 | CGAGGACTTC | 1.02 ± 0.012
24 | CGAGGCAGCA | 1.199 ± 0.009
25 | CGAGGCCTCG | 0.994 ± 0.038

Row | Sequence | switch fluorescence ratio
26 | CGAGGCGGAG | 1.01 ± 0.028
27 | CGAGGGAGTT | 0.986 ± 0.044
28 | CGAGGGGA | 1.018 ± 0.0082
29 | CGAGGGGATG | 1.006 ± 0.0088
30 | CGAGGGGCAC | 0.997 ± 0.013
31 | CGAGGGGCCA | 1 ± 0.027
32 | CGAGGGGGAT | 1.19 ± 0.27
33 | CGAGGGGGGC | 1.02 ± 0.092
34 | CGAGGGGGGG | 1.01 ± 0.025
35 | CGAGGGGGTT | 1 ± 0.02
36 | CGAGGGGTCC | 0.975 ± 0.043
37 | CGAGGGTGCA | 1.04 ± 0.021
38 | CGAGGTAGAG | 1.01 ± 0.049
39 | CGAGGTGAAG | 0.9922 ± 0.0049
40 | CGAGTAGCGG | 1.01 ± 0.036
41 | CGAGTAGTGC | 1.12 ± 0.033
42 | CGAGTATGCA | 0.981 ± 0.024
43 | CGAGTCTGCC | 1.04 ± 0.075
44 | CGAGTTAAAT | 1.01 ± 0.037
45 | CGAGTTGGAG | 1.01 ± 0.025
46 | CGAGTTTGGG | 1.001 ± 0.0031
47 | CGATAAAGGT | 1.016 ± 0.0095
48 | CGATAACCTT | 1.48 ± 0.48
49 | CGATAATGTG | 0.9727 ± 0.0063
50 | CGATATCAAT | 1.061 ± 0.0062

Row | Sequence | switch fluorescence ratio
51 | CGATATGGGC | 1.02 ± 0.014
52 | CGATATGTCG | 1.41 ± 0.33
53 | CGATATTGGC | 0.985 ± 0.083
54 | CGATCAGTTG | 0.9853 ± 0.004
55 | CGATCCGGGA | 0.9982 ± 0.006
56 | CGATCGAGGA | 0.991 ± 0.036
57 | CGATCGGTCA | 1.0097 ± 0.00057
58 | CGATGAGAGT | 1.03 ± 0.064
59 | CGATGAGGTA | 0.968 ± 0.06
60 | CGATGGTTGA | 1 ± 0.042
61 | CGATGTAGTC | 1.05 ± 0.022
62 | CGATGTGTAC | 2.71 ± 0.17
63 | CGATGTTTGG | 0.988 ± 0.025
64 | CGATTAGGTA | 1 ± 0.041
65 | CGATTATCGG | 0.999 ± 0.014
66 | CGATTCACTT | 1.02 ± 0.021
67 | CGATTGCATT | 1.27 ± 0.045
68 | CGATTGCTGG | 0.989 ± 0.069
69 | CGATTGTATG | 0.992 ± 0.054
70 | CGATTTACTT | 1.02 ± 0.04
71 | CGATTTGAGG | 0.9967 ± 0.0079
72 | CGATTTGGAG | 0.995 ± 0.012
73 | CGATTTGGGG | 0.968 ± 0.017
74 | CGATTTTAGG | 1 ± 0.035
75 | CGATTTTGGG | 0.9844 ± 0.0047

Row | Sequence | switch fluorescence ratio
76 | CGATTTTTTC | 0.9774 ± 0.003
77 | CGCAAACGCA | 3.62 ± 0.17
78 | CGCAAAGAGG | 1.18 ± 0.11
79 | CGCACCGGGT | 1.05 ± 0.015
80 | CGCACCGGTG | 1.02 ± 0.032
81 | CGCACGATGC | 2.89 ± 0.32
82 | CGCACTTCTG | 1.02 ± 0.024
83 | CGCAGCGATG | 2.66 ± 0.11
84 | CGCAGGGGGG | 1.09 ± 0.034
85 | CGCAGGGTTA | 1.02 ± 0.052
86 | CGCAGGTTAG | 1.11 ± 0.025
87 | CGCAGTTATT | 1.08 ± 0.014
88 | CGCAGTTGGA | 1.03 ± 0.039
89 | CGCATAAATA | 1.16 ± 0.034
90 | CGCATACGGT | 4.124 ± 0.029
91 | CGCATATGTA | 1.08 ± 0.033
92 | CGCATGAGTT | 1.017 ± 0.0098
93 | CGCATTAAAA | 0.969 ± 0.024
94 | CGCATTGTGG | 1.02 ± 0.042
95 | CGCATTTAGG | 1.08 ± 0.027
96 | CGCATTTAGT | 1.12 ± 0.0063
97 | CGCATTTGGT | 1.07 ± 0.036
98 | CGCCAGAAGG | 0.9883 ± 0.0036
99 | CGCCAGCAGA | 1.33 ± 0.14
100 | CGCCAGCATA | 2.82 ± 0.31

Row | Sequence | switch fluorescence ratio
101 | CGCCATATTT | 1.03 ± 0.016
102 | CGCCATGGAA | 1 ± 0.017
103 | CGCCCCGTCA | 0.954 ± 0.036
104 | CGCCCGCTGT | 1.72 ± 0.65
105 | CGCCCGGGGG | 1.32 ± 0.45
106 | CGCCGCACTT | 3.93 ± 1.1
107 | CGCCGCTTCA | 1.05 ± 0.067
108 | CGCCGGGTTT | 1.02 ± 0.018
109 | CGCCTAGAGG | 1.02 ± 0.032
110 | CGCCTCATTT | 1 ± 0.03
111 | CGCCTGGCGT | 0.9568 ± 0.0077
112 | CGCCTTTGTG | 1 ± 0.019
113 | CGCGAAGTTG | 0.999 ± 0.057
114 | CGCGCAGGGG | 1.69 ± 0.076
115 | CGCGCATGGT | 1.14 ± 0.033
116 | CGCGCGGATT | 1.04 ± 0.034
117 | CGCGCGGTGT | 1.17 ± 0.2
118 | CGCGGGCCGT | 0.981 ± 0.024
119 | CGCGGGGATA | 1.18 ± 0.23
120 | CGCGGGTTGC | 1.06 ± 0.042
121 | CGCGGTATGG | 1.04 ± 0.022
122 | CGCGGTGGGA | 1.02 ± 0.026
123 | CGCGGTGGGC | 1.005 ± 0.0026
124 | CGCGGTTGC | 1.24 ± 0.038
125 | CGCGTAGACA | 0.992 ± 0.055

Row | Sequence | switch fluorescence ratio
126 | CGCGTCGGGA | 0.976 ± 0.044
127 | CGCGTGGGCC | 1.03 ± 0.026
128 | CGCGTTAGA | 1.04 ± 0.017
129 | CGCGTTGAAA | 1.038 ± 0.0035
130 | CGCGTTGGGG | 1.03 ± 0.044
131 | CGCTAAAGCC | 1.156 ± 0.003
132 | CGCTACTGTT | 1.079 ± 0.0014
133 | CGCTACTTGA | 1.027 ± 0.0082
134 | CGCTATGTTT | 1.02 ± 0.019
135 | CGCTATTTCT | 1.1 ± 0.051
136 | CGCTCAAAGG | 1.03 ± 0.015
137 | CGCTCAGTTG | 1.13 ± 0.0039
138 | CGCTCCGATG | 1.26 ± 0.025
139 | CGCTCCGGAG | 1.18 ± 0.14
140 | CGCTCCGGGG | 1.06 ± 0.07
141 | CGCTCTTATT | 0.978 ± 0.016
142 | CGCTCTTTTG | 1.02 ± 0.061
143 | CGCTGCTCGC | 1.3253 ± 0.00064
144 | CGCTGGCATG | 1 ± 0.032
145 | CGCTGGGTGG | 1.02 ± 0.037
146 | CGCTGTCGGA | 1.014 ± 0.0078
147 | CGCTGTGGCG | 0.983 ± 0.036
148 | CGCTGTGGGC | 0.988 ± 0.044
149 | CGCTTAAGTT | 1.004 ± 0.0013
150 | CGCTTAATTA | 1.01 ± 0.041

Row | Sequence | switch fluorescence ratio
151 | CGCTTAGCCA | 1.01 ± 0.021
152 | CGCTTAGGCA | 1.02 ± 0.053
153 | CGCTTCTCTT | 1.03 ± 0.011
154 | CGCTTGGGGT | 0.9626 ± 0.0092
155 | CGCTTGGTCG | 1.03 ± 0.016
156 | CGCTTGTATT | 1.02 ± 0.013
157 | CGCTTTGGAA | 0.964 ± 0.064
158 | CGCTTTGGTT | 1.04 ± 0.012
159 | CGCTTTTCTT | 1.01 ± 0.0035
160 | CGCTTTTGCT | 0.969 ± 0.029
161 | CGGAAAGCG | 1 ± 0.026
162 | CGGAAATGGG | 1.023 ± 0.0022
163 | CGGAACGAGA | 0.983 ± 0.025
164 | CGGAAGAAAT | 1.02 ± 0.017
165 | CGGAATGCAG | 1.076 ± 0.0032
166 | CGGAATTTTT | 0.971 ± 0.016
167 | CGGACATTCA | 1.041 ± 0.0082
168 | CGGACCGGGA | 1.06 ± 0.012
169 | CGGACGACGG | 1.01 ± 0.027
170 | CGGACGGGTG | 1.02 ± 0.018
171 | CGGACGTTTT | 1.17 ± 0.13
172 | CGGACTAAGA | 1.04 ± 0.012
173 | CGGACTAGTT | 0.994 ± 0.022
174 | CGGACTCCCA | 1.753 ± 0.014
175 | CGGACTGATT | 1 ± 0.064

Row | Sequence | switch fluorescence ratio
176 | CGGAGAGATG | 1.042 ± 0.0034
177 | CGGAGATACG | 1.02 ± 0.029
178 | CGGAGCTCTG | 1.06 ± 0.015
179 | CGGAGGAACG | 1.01 ± 0.038
180 | CGGAGGACAA | 0.976 ± 0.012
181 | CGGAGGACCA | 0.978 ± 0.023
182 | CGGAGGACGG | 1.03 ± 0.032
183 | CGGAGGGAAA | 0.963 ± 0.033
184 | CGGAGGGATC | 1.12 ± 0.037
185 | CGGAGGGGGT | 1.016 ± 0.0052
186 | CGGAGGTAGG | 1.01 ± 0.043
187 | CGGAGGTATA | 1.14 ± 0.017
188 | CGGAGGTTTC | 1.02 ± 0.03
189 | CGGAGTACAG | 1.09 ± 0.11
190 | CGGAGTAGGG | 1.058 ± 0.0023
191 | CGGAGTTAGC | 1.13 ± 0.028
192 | CGGATAGGTT | 1.01 ± 0.017
193 | CGGATATATA | 1.08 ± 0.049
194 | CGGATCAGAA | 0.9956 ± 0.001
195 | CGGATCCCGA | 0.995 ± 0.018
196 | CGGATCGGGG | 1.17 ± 0.15
197 | CGGATCGGGT | 1.004 ± 0.0015
198 | CGGATCTGGT | 0.968 ± 0.024
199 | CGGATCTTTA | 1.01 ± 0.037
200 | CGGATGAATG | 0.999 ± 0.029
